We go through one molecule from patent US7223392 (dated 2007).

The target in one experiment is p5E8G1. Description: apparent Kd.
The next experiment addresses p5E8G1N-. Description: apparent Kd.

B1: human CD23 (receptor)
chain: MELQVSSGFVCNTCPEKWINFQRKCYYFGKGTKQWVHARYACDDMEGQLVSIHSPEEQDFLTKHASHTGSWIGLRNLDLKGEFIWVDGSHVDYSNWAPGEPTSRSQGEDCVMMRGSGRWNDAFCDRKLGAWVCDRLATCTPPASEGSAESMGPDSRPDPDGRLPTPSAPLHS
As to B1, the Kd in the experiment with p5E8G1 and with p5E8G1N- was 700 pM throughout.
